Values of other authors in patent publication US20100215737A1, “COMBINATION PHARMACEUTICAL COMPOSITIONS” (priority 2007, published 2010).

Test system: MCO
Details: 1 mg/kg iv alone, 1, 2 or 3 h after occlusion

B1: rt-PA: tissue plasminogen activator, thrombolytic (protein, UniProt P00750 36-562, looked up)
Tissue-type plasminogen …: SYQVICRDEKTQMIYQQHQSWLRPVLRSNRVEYCWCNSGRAQCHSVPVKSCSEPRCFNGGTCQQALYFSDFVCQCPEGFAGKCCEIDTRATCYEDQGISYRGTWSTAESGAECTNWNSSALAQKPYSGRRPDAIRLGLGNHNYCRNPDRDSKPWCYVFKAGKYSSEFCSTPACSEGNSDCYFGNGSAYRGTHSLTESGASCLPWNSMILIGKVYTAQNPSAQALGLGKHNYCRNPDGDAKPWCHVLKNRRLTWEYCDVPSCSTCGLRQYSQPQFRIKGGLFADIASHPWQAAIFAKHRRSPGERFLCGGILISSCWILSAAHCFQERFPPHHLTVILGRTYRVVPGEEEQKFEVEKYIVHKEFDDDTYDNDIALLQLKSDSSRCAQESSVVRTVCLPPADLQLPDWTECELSGYGKHEALSPFYSERLKEAHVRLYPSSRCTSQHLLNRTVTDNMLCAGDTRSGGPQANLHDACQGDSGGPLVCLNDGRMTLVGIISWGLGCGQKDVPGVYTKVTNYLDWIRDNMRP
neuroprotective effect, drug alone: neuroprotective effects when administered alone up to 1 h following occlusion
